Measurements as given in paper PMC6016246, “Cytokinin Signaling in Mycobacterium tuberculosis” (mBio, 2018).

Legend:
[1] = molecular target: the molecule itself; experiment: crystal structure; DNA-free Rv0078, C2 space group crystals, sitting-drop vapor diffusion at 20°C, 0.1 M sodium cacodylate pH 6.4, 1.3 M lithium sulfate; 1.85 Å
Rv0078 [2] = molecular target: T1, Rv0078 (Mycobacterium tuberculosis, UniProt O53623 1-201); experiment: crystal structure; […], room temperature 30 min; […], buffer not stated; conditions: protein: recombinant; tags: C-terminal His6; chain copies: 4; blunt
T1 sequence: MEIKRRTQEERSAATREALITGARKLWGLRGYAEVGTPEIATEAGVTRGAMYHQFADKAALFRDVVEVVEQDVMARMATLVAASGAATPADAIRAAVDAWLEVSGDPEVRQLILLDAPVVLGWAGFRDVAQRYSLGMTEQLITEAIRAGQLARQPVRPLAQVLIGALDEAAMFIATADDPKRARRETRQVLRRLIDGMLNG

Rv0078 [3] = molecular target: T1, Rv0078; experiment: ITC; […], room temperature 30 min; […], buffer not stated; conditions: protein: recombinant; tags: C-terminal His6; chain copies: 4

B1: Rv0078-His6 (TetR-like transcriptional repressor Rv0078) (natural protein)
chain: T1 sequence
notes: also called LoaR; EthR2; not shown: His6, C-terminal, kept
**Q.** Which “stoichiometry N” value [1] does the source give for B1 here?
**A.** 2

B2: 23-mer operator duplex (dsDNA)
DNA 1: TTTACAAGCAGACTGCCGGTAAC
DNA 2: GTTACCGGCAGTCTGCTTGTAAA
**Q.** Does B2 bind (Rv0078 [2])?
**A.** binds

B3: +13/-8 DNA probe (ITC) (dsDNA)
DNA 1: TTACAAGCAGACTGCCGGTAA
DNA 2: TTACCGGCAGTCTGCTTGTAA
**Q.** With B3 as the binder, how does the Kd (Rv0078 [3]) read?
**A.** 357 nM
